Results on two substances are retold here after patent US20130202618A1.

Assay [1] deals with C. difficile toxin B from strain CCL678 (ribotype 027, BI/NAP1/027) (Clostridium difficile strain CCL678). Nature of the assay: cell-based or functional assay.
The target of assay [2] is C. difficile toxin A from strain Pitt 07 (ribotype 078) (Clostridium difficile strain Pitt 07). Nature of the assay: cell-based or functional assay.

A value given as a limit tells only on which side of the number the result lay.

As for “comparator human anti-toxin B monoclonal antibody CDB-1”, in assay [1], the EC50, neutralization of supernatant cytotoxicity on CHO-K1 cells was above 100 nM.
“comparator human anti-toxin A monoclonal antibody CDA-1” had an EC50, neutralization of supernatant cytotoxicity on T-84 cells in assay [2] above 100 nM.
